{"source": "paper doi:10.1101/2024.11.26.625467", "molecular_target": "KS17 N2 NA (neuraminidase head of H3N2 A/Kansas/14/2017) (influenza A virus H3N2 A/Kansas/14/2017)", "test": "cryo-EM structure"}
{"substance": "KS17 N2 NA (neuraminidase head of H3N2 A/Kansas/14/2017) (domain or fragment)", "values": [{"measurement": "stoichiometry N", "value": 4}]}
